Assays:
[1] = target: T1, Bcl-xL/Bak GD domain interaction (Homo sapiens, UniProt Q07817); test: High through-put screening assay 2: GST-Bcl-xL binding to biotinylated Bak GD peptide on neutravidin wells, ELISA; details: competing peptide added, ELISA signal
T1 construct: made in house; host or cells: E. coli
Procedure: An assay was developed to screen for compounds that block the interaction between the Bcl-2 homologs, Bcl-xL and Bak. A synthetic peptide corresponding to the Bak GD binding domain ([…] [SEQ ID NO: 35]) was biotinylated and bound to wells coated with neutravidin. […] Peptides encompassing the GD domain from various Bcl-2 family members were tested for their ability to block GD domain-mediated interactions in this assay. Peptides tested: Bcl-w [SEQ ID NO: 39] […] ([…]), Bak [SEQ ID NO: 36]([…]), Bak-15 [SEQ ID NO: 37] ([…]), Bak-15L78A [SEQ ID NO: 38] ([…]), control (no peptide).
In a modification of the high through-put screening assay 1 described herein, wells are coated with an avidin derivative, to which a biotinylated peptide/protein is bound. A GST-fusion protein that can interact with the biotinylated peptide/protein is added in the presence or absence of test compounds. The plates are incubated and then unbound GST-fusion protein is removed by washing. The amount of GST-fusion protein specifically bound to the tethered peptide/protein is determined by ELISA using an anti-GST antibody conjugated to horse radish peroxidase. Compounds which block the interaction between the biotinylated peptide/protein and the GST-fusion protein cause a decrease in the ELISA signal.
In a specific example, an assay was developed to screen for compounds that block the interaction between the Bcl-2 homologs, Bcl-xL and Bak. A biotinylated Bak GD domain peptide (amino acid residues 71-89; N-biotinylated […] [SEQ ID NO: 35]) was bound to wells coated with neutravidin. […] Using this assay, peptides from Bcl-2 family members were identified which block the Bcl-xL/Bak GD domain interaction (FIG. 10).

[2] = target: T2, interaction of GST-Bcl-xL and Bak (Homo sapiens, UniProt Q07817); test: In vitro binding assay: inhibition of GST-Bcl-xL binding to 35S-methionine-labeled Bak; details: peptide mixed with GST-Bcl-xL 30 minutes prior to addition to the binding assay
T2 construct: made in house; host or cells: GST-Bcl-xL: E. coli; Bak: rabbit reticulocyte lysate (Promega)
T2 sequence (Q07817 whole entry): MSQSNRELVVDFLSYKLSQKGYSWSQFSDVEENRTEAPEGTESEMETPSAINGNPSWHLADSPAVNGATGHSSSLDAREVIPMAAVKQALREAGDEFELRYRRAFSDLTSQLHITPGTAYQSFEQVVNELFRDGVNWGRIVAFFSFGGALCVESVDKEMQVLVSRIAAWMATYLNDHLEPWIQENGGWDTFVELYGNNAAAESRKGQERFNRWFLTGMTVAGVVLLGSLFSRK
Procedure: An in vitro binding assay as described herein in Example A.3. was used to measure the inhibition of GST-Bcl-xL binding to in vitro translated ^35Met-labeled Bak by a 20-amino acid peptide derived from the Bak GD domain (70-89; […] [SEQ ID NO: 36]). The peptide was mixed with the GST-Bcl-xL protein 30 minutes prior to addition to the binding assay. The concentration of peptide in the binding assay is indicated. Control assay contains no peptide.
The beads were removed by centrifugation and the supernatants were incubated with GST or GST-Bcl-xL (final concentration […]) at 4° C. for 1 hour. The GST fusion proteins and any interacting proteins were recovered by incubation for 1 hour with an additional […] of GSH-agarose beads. The beads were washed twice with NP-40 lysis buffer followed by two washes with NP-40 lysis buffer without NP-40. Proteins were eluted from the beads by incubation in SDS-PAGE sample buffer at 100° C. for 5 min and loaded onto 4-20% SDS-polyacrylamide gels. Following electrophoresis, gels were fixed and incubated in a fluorography enhancing solution (Amplify; Amersham). […]
GST-Bcl-xL, or GST-Bcl-2 is incubated with a labeled GD domain-containing protein in the presence of a test compound. Resulting protein complexes are captured on GSH-agarose beads and the amount of labeled interacting protein is measured. […]

T1 sequence (Q07817 whole entry, the tested form may be a part): as the sequence (Q07817 whole entry) above

Sequence: TMGQVGRQLAIIGDDINRRY [Bak peptide, Bak GD domain peptide, amino acid residues 70-89]
- inhibition of Bcl-xL/Bak GD domain binding [1]: concentration-dependent inhibition of binding
- inhibition of the interaction of GST-Bcl-xL and 35S-methionine-labeled Bak [2]: inhibition of the interaction

Reference: patent US7358088B2, “Peptides and compositions which modulate apoptosis” (ImmunoGen, Inc., priority 1995, dated 2008)
